Assay [1] addresses T1, human CX3CR1 (human, UniProt P49238 1-355).
T1 sequence: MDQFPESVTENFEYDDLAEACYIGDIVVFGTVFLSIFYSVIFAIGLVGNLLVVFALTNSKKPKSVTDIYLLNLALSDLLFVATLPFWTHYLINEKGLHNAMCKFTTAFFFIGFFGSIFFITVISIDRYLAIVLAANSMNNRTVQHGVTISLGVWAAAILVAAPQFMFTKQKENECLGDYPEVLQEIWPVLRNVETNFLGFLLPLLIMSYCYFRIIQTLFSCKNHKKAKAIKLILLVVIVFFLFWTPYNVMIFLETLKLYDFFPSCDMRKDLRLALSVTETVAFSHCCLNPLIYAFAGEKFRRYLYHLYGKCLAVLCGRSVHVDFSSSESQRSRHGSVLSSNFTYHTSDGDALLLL
In words: cell-based or functional assay.

The target of assay [2] is T1, human CX3CR1. Briefly: FACS binding, HEK293T human CX3CR1. A general note: A flow cytometer gives signals particle by particle.
Assay [3] has as its target T2, cynomolgus CX3CR1 (cynomolgus, UniProt P49238 1-355 (human entry)).
T2 construct: transiently expressed on HEK293T cells; also called cyCX3CR1; cyno CX3CR1
T2 chain: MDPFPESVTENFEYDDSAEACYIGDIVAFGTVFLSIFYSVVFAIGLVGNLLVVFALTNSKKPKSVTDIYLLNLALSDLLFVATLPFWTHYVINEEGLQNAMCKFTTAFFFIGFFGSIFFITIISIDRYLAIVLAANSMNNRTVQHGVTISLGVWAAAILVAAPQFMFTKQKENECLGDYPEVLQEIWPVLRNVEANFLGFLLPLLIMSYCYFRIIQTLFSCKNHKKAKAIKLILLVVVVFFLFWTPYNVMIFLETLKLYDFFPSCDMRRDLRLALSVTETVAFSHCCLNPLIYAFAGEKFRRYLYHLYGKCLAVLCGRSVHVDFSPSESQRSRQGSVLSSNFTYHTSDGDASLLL
Briefly: FACS binding, HEK293T cynomolgus CX3CR1.

The target in assay [4] is T2, cynomolgus CX3CR1. In words: FACS binding, cynomolgus against human CX3CR1.
Assay [5] addresses T1, human CX3CR1. Briefly: A647-fractalkine competition FACS, CHO-huCX3CR1. An excerpt: Periplasmic extracts were screened in a human CX3CR1/human Fractalkine FACS competition assay to assess the blocking capacity of the expressed VHHs. Human CX3CR1 was presented on CHO cells overexpressing CX3CR1. Both a setup using cells harvested from an actively growing culture and a setup using frozen cells was used. As a detection reagent labeled fractalkine was used (R&D Systems, Minneapolis, Minn., USA) labeled with alexa647 (A647-Fractalkine) at a degree of labeling of 1. To setup the assay, first a titration series of the labeled fractalkine was performed on the CHO-huCX3CR1 cells in order to determine the EC50 value for binding. Initially screening was performed at a higher concentration of fractalkine (3 nM) to increase the assay robustness. To increase the sensitivity of the screening to a maximum, the EC30 concentration (1 nM) was chosen for subsequent screening. In brief 50 μl of periplasmic extract was added to 6 nM labeled fractalkine (50 μ;) and 200 000 CHO-huCX3CR1 cells. After one hour incubation at 4 C, cells were washed three times before read out was performed on a FACS Array (Becton Dickinson). First a gate was set on the intact cells as determined from the scatter profile. Next, dead cells were gated out by their fluorescence profile from the PI stain (Sigma, St Louis, US). The fluorescence profile from the alexa647 label was determined for each sample and used for calculation of blocking capacity. As controls, conditions were taken along where there was no VHH present in the peri extract or a known irrelevant VHH and samples were included where excess cold fractalkine was included. For each sample the percentage block was determined using the control samples to determine the assay window.
The inhibition of ligand binding to human CX3CR1 was investigated for the different formats as described in Example 4. For this characterization the BA/F3-huCX3CR1 cell line was used showing stable expression of the human CX3CR1 receptor. The alexa647 labeled ligand fractalkine was used at its EC30 concentration and thereby obtained IC50 values are reflective of the Ki values.

The target in assay [6] is T1, human CX3CR1. In words: cell-based or functional assay. The source holds these as a separate data set.
For assay [7], the target named is T1, human CX3CR1. In words: A647-fractalkine competition FACS, BA/F3-huCX3CR1.
Assay [8] has as its target T1, human CX3CR1. Briefly: cell-based or functional assay. The source holds these as a separate data set.
Assay [9] addresses T1, human CX3CR1. Briefly: A647-fractalkine competition FACS, BA/F3-huCX3CR1. This is another data set of the same source.
Assay [10] addresses T1, human CX3CR1. In words: A647-fractalkine competition FACS, BA/F3-huCX3CR1. The source holds these as a separate data set.

Like-named read-outs stand apart in the source and are kept apart here.

B1: CX3CR1BII009 (VHH)
chain: KVQLVESGGGLVQPGGSLRLSCATSGTIFSNNAMGWYRQAPGKKRDLVASISSSGSTNYADSVKGRFTVSRDNDKNTGYLQMNSLKPEDTGVYYCTLDARRGWNTAYWGQGAQVTVSSGGGGSGGGGSGGGGSGGGGSGGGGSGGGGSGGGGSEVQLVESGGGLVQAGGSLRLSCVASGRTFSSYAMGWFRQAPGKERAFVAGISGSASRKYYADSVKGRFTVSRDNARNTVYLQMNSLKPEDTAVYYCAASNSYPKVQFDYYGQGTQVTVSS
notes: expressed in E. coli as described for the monovalent VHHs
Regarding B1, in [1], the “% block, fractalkine induced chemotaxis” value is 79% and the “IC50, fractalkine induced chemotaxis” value turned out to be 20 nM. Moreover, a half-maximal response in assay [2] (EC50) required 2 nM. In addition, in assay [3], the response was half-maximal at 6.8 nM (EC50). In addition, in [4], the “ratio (cynomolgus/human EC50)” value came to 3.3. In assay [5], the “% block” value came out at 91% and the IC50 (as a rule, the point on the concentration scale where inhibition reaches its midpoint) came to 0.7 nM.

B2: CX3CR1BII007 (VHH)
chain: EVQLVESGGGLVQAGGSLRLSCVASGRTFSSYAMGWFRQAPGKERAFVAGISGSASRKYYADSVKGRFTVSRDNARNTVYLQMNSLKPEDTAVYYCAASNSYPKVQFDYYGQGTQVTVSSGGGGSGGGGSGGGGSGGGGSGGGGSGGGGSGGGGSKVQLVESGGGLVQPGGSLRLSCATSGTIFSNNAMGWYRQAPGKKRDLVASISSSGSTNYADSVKGRFTVSRDNDKNTGYLQMNSLKPEDTGVYYCTLDARRGWNTAYWGQGAQVTVSS
notes: expressed in E. coli as described for the monovalent VHHs (c-myc, His6 tags there)
Take B2: in assay [1], the “% block, fractalkine induced chemotaxis” value is 101% and the “IC50, fractalkine induced chemotaxis” value was 4 nM. Besides, in [2], the midpoint of the response, the EC50, lay at 0.31 nM. Also, the midpoint of the response in assay [3], the EC50, lay at 48 nM. For the same molecule, the “ratio (cynomolgus/human EC50)” value in assay [4] was 154. In assay [5], the “% block” value was 100% and the half-maximal inhibitory concentration (IC50) came to 0.38 nM.

B3: 306D-hFc (Fc fusion)
chain: DVQLVESGGGLVQPGGSLRLSCAASGSIFSSTAMAWYRQAPGKRRDLVAAISSVGVTKYADSVKGRFTISRDNSKNTVYLQMNSLRPEDTAVYYCTSDPRRGWDTRYWGQGTLVTVSSGGGGSGGGGSGGGGSCPPCPAPEAAGGPSVFLFPPKPKDTLMISRTPEVTCVVVDVSHEDPEVKFNWYVDGVEVHNAKTKPREEQYNSTYRVVSVLTVLHQDWLNGKEYKCKVSNKALPAPIEKTISKAKGQPREPQVYTLPPSREEMTKNQVSLTCLVKGFYPSDIAVEWESNGQPENNYKTTPPVLDSDGSFFLYSKLTVDKSRWQQGNVFSCSVMHEALHNHYTQKSLSLSPGK
notes: CX3CR1BII00306 fused to a human IgG1 Fc domain with two mutations in CH2; expressed in HEK293T or NS0 cells
For the molecule B3, in assay [6], the “IC50, Calcium influx” value came to 1.3 nM; the “IC50, Chemotaxis” value was 2.9 nM; the “IC50, Ligand internalization” value stood at 0.48 nM. This molecule returned an IC50 in assay [7] of 0.69 nM.

B4: 307D-hFc (Fc fusion)
chain: DVQLVESGGGLVQPGGSLRLSCAASGSIFSSTAMAWYRQAPGKRRDLVAAISTVGVTKYADSVKGRFTISRDNSKNTVYLQMNSLRPEDTAVYYCTSDPRRGWDTRYWGQGTLVTVSSGGGGSGGGGSGGGGSCPPCPAPEAAGGPSVFLFPPKPKDTLMISRTPEVTCVVVDVSHEDPEVKFNWYVDGVEVHNAKTKPREEQYNSTYRVVSVLTVLHQDWLNGKEYKCKVSNKALPAPIEKTISKAKGQPREPQVYTLPPSREEMTKNQVSLTCLVKGFYPSDIAVEWESNGQPENNYKTTPPVLDSDGSFFLYSKLTVDKSRWQQGNVFSCSVMHEALHNHYTQKSLSLSPGK
notes: CX3CR1BII00307 fused to a human IgG1 Fc domain with two mutations in CH2; expressed in HEK293T or NS0 cells
B4: in [6], the “IC50, Calcium influx” value was found to be 3.2 nM; the “IC50, Chemotaxis” value turned out to be 3 nM; the “IC50, Ligand internalization” value stood at 0.37 nM. Further, in [7], the IC50 worked out at 0.7 nM.

B5: 66B02-mFc (Fc fusion)
chain: EVQLVESGGGSVQAGESLRLSCAASGSIFSSNAMAWYRQAPGKRRDLVAAINSVGVTKYADSVKGRFTISRDNAKNTVYLQMNSLKPEDTAVYYCTSDPRRGWDTRYWGQGTLVTVSSGGGGSGGGGSGGGGSPPCKCPAPNLLGGPSVFIFPPKIKDVLMISLSPIVTCVVVAVSEDDPDVQISWFVNNVEVHTAQTQTHREDYNSTLRVVSALPIQHQDWMSGKEFKCKVNNKDLPAPIERTISKPKGSVRAPQVYVLPPPEEEMTKKQVTLTCMVTDFMPEDIYVEWTNNGKTELNYKNTEPVLDSDGSYFMYSKLRVEKKNWVERNSYSCSVVHEGLHNHHTTKSFSRTPGK
notes: 66B02 VHH fused to a mouse IgG2 Fc domain with D265A in CH2; expressed in HEK293T or NS0 cells; dimer form is told only as an aspect
B5: in assay [8], the “IC50, Calcium influx” value is 0.98 nM; the “IC50, Chemotaxis” value was found to be 0.89 nM; the “IC50, Ligand internalization” value was 0.52 nM. The same molecule showed an IC50 in [9] of 0.57 nM.

B6: CX3CR1BII012 (VHH)
chain: EVQLVESGGGSVQAGGSLRLSCAASGSIFSSNAMAWYRQAPGKQRDLVAGINSVGITKYADSVKGRFTISRDNAKNTVYLQMNSLKPEDTAVYYCTSDPRRGWDTRYWGQGTLVTVSSGGGGSGGGGSGGGGSGGGGSGGGGSGGGGSGGGGSKVQLVESGGGLVQPGGSLRLSCATSGTIFSNNAMGWYRQAPGKKRDLVASISSSGSTNYADSVKGRFTVSRDNDKNTGYLQMNSLKPEDTGVYYCTLDARRGWNTAYWGQGAQVTVSS
notes: as for B1
Consider B6, for which, in assay [1], the “% block, fractalkine induced chemotaxis” value is 78% and the “IC50, fractalkine induced chemotaxis” value came out at 4 nM. For the same molecule, the concentration giving a half-maximal response (EC50) (in general, the midpoint of the concentration-response curve) in assay [2] was 0.056 nM. In assay [3], this molecule had a 50% effective concentration (EC50) of 0.063 nM. For the same molecule, in assay [4], the “ratio (cynomolgus/human EC50)” value was found to be 1.1. Moreover, in assay [5], the “% block” value came out at 93% and the 50% inhibitory concentration (IC50) was determined as 0.8 nM.

B7: CX3CR1BII026 (VHH)
chain: EVQLVESGGGLVQAGGSLRLSCVASGRTFSSYAMGWFRQAPGKERAFVAGISGSASRKYYADSVKGRFTVSRDNARNTVYLQMNSLKPEDTAVYYCAASNSYPKVQFDYYGQGTQVTVSSGGGGSGGGGSGGGGSGGGGSGGGGSGGGGSGGGGSEVQLVESGGGSVQAGESLRLSCAASGSIFSSNAMAWYRQAPGKRRDLVAAINSVGVTKYADSVKGRFTISRDNAKNTVYLQMNSLKPEDTAVYYCTSDPRRGWDTRYWGQGTQVTVSS
notes: as for B1
Take B7: in assay [1], the “% block, fractalkine induced chemotaxis” value came to 98% and the “IC50, fractalkine induced chemotaxis” value amounted to 0.3 nM. The molecule also showed an IC50 in assay [10] of 0.7 nM.

B8: CX3CR1BII027 (VHH)
chain: EVQLVESGGGLVQAGGSLRLSCVASGRTFSSYAMGWFRQAPGKERAFVAGISGSASRKYYADSVKGRFTVSRDNARNTVYLQMNSLKPEDTAVYYCAASNSYPKVQFDYYGQGTQVTVSSGGGGSGGGGSGGGGSGGGGSGGGGSGGGGSGGGGSEVQLVESGGGSVQAGESLRLSCAASGSIFSSNAMAWYRQAPGKQRDLVAGINSVGITKYADSVKGRFTISRDNAKNTAYLQMNSLKPEDTAVYYCTSDPRRGWDTRYWGQGTLVTVSS
notes: as for B1
As for B8, in assay [1], the “% block, fractalkine induced chemotaxis” value worked out at 98% and the “IC50, fractalkine induced chemotaxis” value is 0.9 nM. In assay [10], this molecule had an IC50 of 0.67 nM.

For the origin of these results see patent US20130224224A1 (Boehringer Ingelheim, published 2013).
